A word on the Kd: it is the free concentration of one partner at which half of the binding sites on the other are occupied at equilibrium, for simple one-to-one binding.

Entries after “also recorded” stand apart in the source; their conditions may differ. Like-named read-outs stand apart in the source and are kept apart here. Non-standard residues stand in square brackets, D forms with d. Residues, ends and D or L forms follow the SMILES beside them.

One series concerns the target T1, lysostaphin CWT domain (Staphylococcus simulans, UniProt P10547).
T1 construct: DNA encoding the CWT domain (residues 402-493) was amplified; GST (from the pGEX-2T vector); made in house; host or cells: E. coli BL21 (DE3)
Format: binding. The procedure:
The pentaglycine binding site on the CWT domain was determined by comparing the ^1H, ^15N, and ^1H, ^13C HSQC spectra of full-length lysostaphin and CWT domain acquired in the presence and absence of a large amount, ~170 molar excess, of KGGGGG and GGGGGK hexapeptides (Sigma-Aldrich). […] CSPs, calculated as Δδ = (ΔδH^2+(0.154 × ΔδN)^2)^1/2, were plotted as a function of the molar ratio of titrated ligand to CWT domain. Dissociation constants for individual residues were obtained by nonlinear least squares fitting, as implemented in the program xcrvfit (www.bionmr.ualberta.ca/bds/software/xcrvfit). Site-specific dissociation constants were calculated as averages of dissociation constants of individual residues within the site. In all binding site studies protein to zinc concentration ratio was 1:1.

In series [1] the test system is CWT binding to S. aureus cells. More on the design: method as in Gründling and Schneewind, 2006. The note with it: excess of pentaglycine; ref Gründling and Schneewind, 2006; cited from earlier work.
The conditions of series [2]: effect of presence of lysine, relative to pentaglycine.
Series [3] in a line: Pentaglycine cleavage by lysostaphin monitored by 1H NMR. Format: biochemical. The note with it: for Relative activity: PBS pH 7.2, 21 h, 37 °C. As to the method:
Pentaglycine cleavage by lysostaphin was monitored by ^1H NMR as described previously (Raulinaitis et al., [2017a]). Reactions took place in phosphate buffer saline (PBS), pH 7.2, with >90% D2O by volume as a solvent and final volumes were 600 μL. Initial pentaglycine (Sigma-Aldrich) and lysostaphin concentrations were 1 mM and 2.25 μM, respectively. Metal ions (ZnCl2, CoCl2, CuCl2, and MnCl2) were added as needed. Residual activity of lysostaphin “apo” form was taken into account in activity calculations. Measurements were carried out by using a Bruker Avance III 600 MHz spectrometer, equipped with a QCI ^1H/^13C/^15N/^31P cryoprobe and a SampleJet automated sample changer. The preheater of the sample changer was used for sample incubation when product formation was measured as a time series with 3-h intervals for 48 h. Single time-point samples were incubated in an incubator for 21 h and reactions were quenched by heating at 90°C for 15 min before proton spectra acquisitions at 37°C. The data were processed with Bruker TopSpin 3.5 software.
Proton NMR allows for direct and real-time reaction monitoring devoid of intricacies of cellular suspension (Raulinaitis et al., [2017a]). Scission of pentaglycine by lysostaphin was monitored for 48 h by ^1H NMR and under conditions of this study its catalytic rate appeared to be limited only by saturation with the substrate (Supplementary Figure 4). The substrate turnover rate by the enzyme in the first 3 h of the reaction is estimated to be in the order of 0.006 s^−1.
Figure 4 Lysostaphin activity dependence on zinc, cobalt, copper and manganese cofactors. Lysostaphin was incubated with pentaglycine (2.25 μM and 1 mM concentrations, respectively) in PBS buffer, pH 7.2, for 21 h at 37°C. Total cofactor ratios to protein were 1:1 and 3:1, EDTA excess was 70-fold. […] Activity was adjusted to one zinc-bound lysostaphin as 100% reference point. Bars represent standard error of the mean (S.E.M) of at least three independent measurements. TEXT PRINTED IN THE PICTURE: 1 Zn: Relative activity, %: 100.0 | 3 Zn: Relative activity, %: 79.8 | 1 Cu: Relative activity, %: 96.4 | 3 Cu: Relative activity, %: 183.3 | 1 Mn: Relative activity, %: 38.8 | 3 Mn: Relative activity, %: 40.3 | 1 Co: Relative activity, %: 79.1 | 100 EDTA: Relative activity, %: 12.8

In series [4] the target is T2, lysostaphin cell wall targeting (CWT) domain (residues 402-493) (Staphylococcus simulans, UniProt P10547 402-493).
T2 construct: also called targeting domain; SH3b domain; source: E. coli BL21 (DE3), purified (Glutathione Sepharose, thrombin release, gel filtration on Superdex 75)
As to the kind of experiment: NMR titration; 1H,15N and 1H,13C HSQC spectra of the CWT domain with and without ~170 molar excess of hexapeptide; chemical shift perturbations; protein to zinc 1:1. Conditions: both partners purified.

The mark [5] stands for this setting: ~80 molar excess of the peptide, data not shown.

T1 sequence (P10547 402-493): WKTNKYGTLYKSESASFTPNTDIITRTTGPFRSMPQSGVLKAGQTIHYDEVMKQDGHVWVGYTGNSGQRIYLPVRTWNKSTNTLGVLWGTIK
T2 sequence (P10547 402-493): as above

With pentaglycine, the “affinity of targeting (CWT) domain in words” value on lysostaphin CWT domain (abstract / conclusions summary) is reported as “very low affinity; also recorded: extremely low affinity”. Moreover, in series [1], the “blocking of CWT binding to S. aureus cells” value was “cannot be blocked”.
Turning to “N-acetylmuramyl-L-alanyl-D-isoglutamine hydrate [N-acetylmuramyl-L-A-D-γ-Q hydrate]”, at lysostaphin CWT domain (setting [5]), the CSPs result is given as “very small CSPs” and the “affinity of CWT domain” value is on record as “no significant affinity”.
Take GGGGGK [G5K]: the “Largest peak shifts, Δδ (CSP)” value at lysostaphin CWT domain (residues N405, Y411, G430-F432, V452, M453, Y472, ~170 molar excess) is given as at least 0.10 ppm. In addition, the solubility result in series [2] is recorded as “significantly enhanced the solubility”.
As to “Lysostaphin: S. simulans zinc-dependent endopeptidase with N-terminal catalytic domain and C-terminal cell wall targeting domain”, the Relative activity in series [3] (1 Co (1:1 cofactor to protein), adjusted to one zinc-bound lysostaphin = 100%, 2.25 μM lysostaphin, 1 mM pentaglycine, n ≥ 3) is 79.1%; in series [3] (1 Cu (1:1 cofactor to protein), adjusted to one zinc-bound lysostaphin = 100%, 2.25 μM lysostaphin, 1 mM pentaglycine, n ≥ 3) it was 96.4%; in series [3] (1 Mn (1:1 cofactor to protein), adjusted to one zinc-bound lysostaphin = 100%, 2.25 μM lysostaphin, 1 mM pentaglycine, n ≥ 3), 38.8%; in series [3] (1 Zn (1:1 cofactor to protein), reference point 100%, 2.25 μM lysostaphin, 1 mM pentaglycine, at least three independent measurements) it was 100.0%; in series [3] (3 Cu (3:1 cofactor to protein), adjusted to one zinc-bound lysostaphin = 100%, 2.25 μM lysostaphin, 1 mM pentaglycine, n ≥ 3) it was 183.3%; in series [3] (3 Mn (3:1 cofactor to protein), adjusted to one zinc-bound lysostaphin = 100%, 2.25 μM lysostaphin, 1 mM pentaglycine, n ≥ 3), 40.3%. The Relative activity in series [3] (3 Zn (3:1 cofactor to protein), adjusted to one zinc-bound lysostaphin = 100%, 2.25 μM lysostaphin, 1 mM pentaglycine, n ≥ 3) came out at 79.8%; in series [3] (100 EDTA (EDTA excess, residual activity), adjusted to one zinc-bound lysostaphin = 100%, 2.25 μM lysostaphin, 1 mM pentaglycine, n ≥ 3) it was 12.8%. Moreover, the “change of catalytic activity” value in series [3] (Cu^2+ in excess) is listed as “activity increases”; in series [3] (excess of zinc (second zinc bound by catalytic histidines H329 and H360)) it was “reduces lysostaphin pentaglycine cleaving activity; also recorded: partial inhibition”. Also, the “cofactor suitability for catalytic activity” value in series [3] (Mn^2+) is listed as “weak cofactor”; in series [3] (metal cations Zn^2+, Co^2+, and Cu^2+) it was “suitable cofactors”. For the same molecule, the substrate turnover rate in series [3] (first 3 h of the reaction, 1 mM pentaglycine, 2.25 μM lysostaphin, PBS pH 7.2, 37 °C, 1H NMR every 3 h for 48 h, estimated) is around 0.006 s⁻¹.
As for KGGGGG [KG5], in series [2], the solubility entry is listed as “significantly enhanced the solubility”.
As to `C[C@H](N)C(=O)N[C@H](CCC(=O)O)C(=O)N[C@@H](CCCCN)C(=O)NCC(=O)NCC(=O)NCC(=O)NCC(=O)NCC(=O)N[C@@H](C)C(=O)N[C@H](CCC(=O)O)C(=O)N[C@@H](CCCCN)C(=O)N[C@H](C)C(=O)O` (H-A[dE]KGGGGGA[dE]K[dA]-OH; N-terminus and C-terminus assumed), the CSPs entry on lysostaphin CWT domain (~24 molar excess) is “significant CSPs”.

B1: GGGGGK hexapeptide (peptide)
peptide: GGGGGK
notes: also called G5K; source: bought: Sigma-Aldrich
Consider B1, for which the Kd in series [4] was above 10 mM.

Source of the values: paper PMC6038053, “Structural and Functional Insights Into Lysostaphin–Substrate Interaction” (Frontiers in Molecular Biosciences, 2018).
